What all share (assay type): biochemical
For data set [1], the target named is alcohol dehydrogenase (KpADH, SEQ ID NO: 1) mutant M63, K36I/T132D/N159D/K210E/T248A/Q272L (Vanderwaltozyma polyspora, UniProt A7TM80, K210E/K36I/N159D/Q272L/T132D/T248A). The data set can be described thus: Kinetic parameters in asymmetric reduction of (4-chlorophenyl)-(pyridin-2-yl)-methanone, mutant M63. To be noted: mutant M63 vs wild-type alcohol dehydrogenase. On the procedure:
(§1) The detection method of enzyme activity of the alcohol dehydrogenase is as follows:
(§2) A sodium phosphate buffer (PBS, 100 mM, pH 7.0) containing 1 mM NADPH and 1.0 mM substrate prochiral (4-chlorophenyl)-(pyridin-2-yl)-methanone is stood at 30° C. for 2 min, and then 10 μL of a pure enzyme solution is added to the sodium phosphate buffer, and reacted at 30° C. During the reaction, the change in absorbance of the reaction solution at 340 nm is measured on a microplate reader, and used to calculate the enzyme activity.
(§3) The initial reduction activity of wild-type alcohol dehydrogenase and alcohol dehydrogenase mutants M63, M64 and S5 obtained in Example 1 were respectively determined with 0.1-5 mM prochiral diaryl ketone (4-chlorophenyl)-(pyridin-2-yl)-methanone as a substrate. The data was fitted by the nonlinear regression method in Graph Pad Prism 7.0 software, to obtain the Km and Vmax in Michaelis-Menten equation. Then kcat and kcat/Km were calculated.
(§4) kcat is calculated by the formula kcat=Vmax·M/60, where M is the molecular weight of the enzyme, in kDa.

In data set [2] the target is alcohol dehydrogenase (KpADH, SEQ ID NO: 1) mutant S5, Q136N/F161V/S196G/E214G/S237C (Vanderwaltozyma polyspora, UniProt A7TM80, E214G/F161V/Q136N/S196G/S237C). The experiment in a line: Kinetic parameters in asymmetric reduction of (4-chlorophenyl)-(pyridin-2-yl)-methanone, mutant S5. The conditions noted are these: mutant S5 vs wild type, to (S)-alcohol. The protocol: as §1, §2, §3, §4

The target of data set [3] is alcohol dehydrogenase (KpADH, SEQ ID NO: 1) mutant M64, K36I/T132D/N159D/K210E/T248A/Q272L/Q136N/F161V/S196G/E214G/S237C (Vanderwaltozyma polyspora, UniProt A7TM80, E214G/F161V/K210E/K36I/N159D/Q136N/Q272L/S196G/S237C/T132D/T248A). The data set can be described thus: Kinetic parameters in asymmetric reduction of (4-chlorophenyl)-(pyridin-2-yl)-methanone, mutant M64. The protocol:
as §1, §2, §3, §4

In data set [4] the test system is O=C(c1ccc(Cl)cc1)c1ccccn1. The experiment in a line: Kinetic parameters in asymmetric reduction of (4-chlorophenyl)-(pyridin-2-yl)-methanone, mutant M63. To be noted: other: mutant M63; 0.1-5 mM substrate; pH 7.0; 30.0 °C. The protocol: as §1, §2, §3, §4
Data set [5] concerns O=C(c1ccc(Cl)cc1)c1ccccn1. The data set can be described thus: Kinetic parameters in asymmetric reduction of (4-chlorophenyl)-(pyridin-2-yl)-methanone, mutant M64. To be noted: other: mutant M64; 0.1-5 mM substrate; pH 7.0; 30.0 °C. On the procedure: as §1, §2, §3, §4
Data set [6] concerns O=C(c1ccc(Cl)cc1)c1ccccn1. The data set can be described thus: Kinetic parameters in asymmetric reduction of (4-chlorophenyl)-(pyridin-2-yl)-methanone, mutant S5. To be noted: other: mutant S5; 0.1-5 mM substrate; pH 7.0; 30.0 °C. The protocol:
as §1, §2, §3, §4

Data set [7] relates to O=C(c1ccc(Cl)cc1)c1ccccn1. The experiment in a line: Kinetic parameters in asymmetric reduction of (4-chlorophenyl)-(pyridin-2-yl)-methanone, wild type. To be noted: other: wild type; 0.1-5 mM substrate; pH 7.0; 30.0 °C. On the procedure:
as §1, §2, §3, §4

In the case of `O=C(c1ccc(Cl)cc1)c1ccccn1` [(4-chlorophenyl)-(pyridin-2-yl)-methanone], the “catalytic efficiency relative to wild type” value in data set [1] was determined as 1.3 times. Also, the “catalytic efficiency compared with wild type” value was “decreased compared with the wild type” in data set [2] and “close to that of the wild type” in data set [3] (mutant M64 vs wild type, to (S)-alcohol). The “catalytic efficiency relative to mutant S5” value in data set [3] (mutant M64 vs mutant S5) turned out to be 1.35 times.
In the case of “alcohol dehydrogenase (KpADH, SEQ ID NO: 1) mutant M63, K36I/T132D/N159D/K210E/T248A/Q272L (Vanderwaltozyma polyspora DSM 70294; K210E/K36I/N159D/Q272L/T132D/T248A)”, in data set [4], the Km is 830 ± 200 µM, the Vmax amounted to 32.8 µmol/min/mg, the kcat worked out at 22.8 ± 2.14 s⁻¹ and the kcat/Km came to 27500 M⁻¹ s⁻¹.
With “alcohol dehydrogenase (KpADH, SEQ ID NO: 1) mutant M64, K36I/T132D/N159D/K210E/T248A/Q272L/Q136N/F161V/S196G/E214G/S237C (Vanderwaltozyma polyspora DSM 70294; E214G/F161V/K210E/K36I/N159D/Q136N/Q272L/S196G/S237C/T132D/T248A)”, in data set [5], the Km was determined as 860 ± 140 µM, the Vmax was found to be 25.1 µmol/min/mg, the kcat was determined as 17.4 ± 1.1 s⁻¹ and the kcat/Km was found to be 20300 M⁻¹ s⁻¹.
Take “alcohol dehydrogenase (KpADH, SEQ ID NO: 1) mutant S5, Q136N/F161V/S196G/E214G/S237C (Vanderwaltozyma polyspora DSM 70294; E214G/F161V/Q136N/S196G/S237C)”: in data set [6], the Michaelis-Menten constant (Km) was found to be 1090 ± 100 µM, the Vmax amounted to 24.4 µmol/min/mg, the kcat worked out at 16.1 ± 1.7 s⁻¹ and the kcat/Km worked out at 14800 M⁻¹ s⁻¹.
Take “wild-type alcohol dehydrogenase (KpADH), SEQ ID NO: 1 (Vanderwaltozyma polyspora DSM 70294)”: in data set [7], the Km amounted to 950 ± 100 µM, the maximal velocity (Vmax) was determined as 31.8 µmol/min/mg, the kcat is 20.1 ± 1 s⁻¹ and the kcat/Km came to 21200 M⁻¹ s⁻¹.

In general, Km refers to the concentration of substrate that gives half-maximal velocity. Usually Vmax stands for the rate approached at saturating substrate. In general, kcat refers to the maximal rate divided by the concentration of active sites. By kcat/Km is commonly meant the turnover number divided by the Michaelis constant.

These data come from patent publication US11542479B2, “Alcohol dehydrogenase mutant and use thereof” (priority 2019, dated 2023).
